In US20200369765A1 (INNATE PHARMA, published 2020):
Substitutions are numbered along the chain they refer to.

B1: Fab.D (Fab of mAbD) (Fab, V domains shown)
VH: QIQLVQSGPELKKPGETVKISCKASGYTFTDYSMHWVKQAPGKGLKWMGWIITETGEPTYADDFRGRFAFSLETSANTAYLQINNLKNEDTATYFCARDFDGYWGQGTTLTVSS
VL: DILMTQSPASLSASVGETVTITCRASENIYSYLAWYQQKRGKSPQFLVYNAKTLTEGVPSRFRGSGSGTQFSLKINSLQPEDFGTYYCQHHYGFPWTFGGGTKLEIK
B2: Fab.A (Fab of mAbA) (Fab, V domains shown)
VH: QVQLQQPGAELVKPGSPVKLSCKASYFTFTSYWMHWVRQRPGQGLEWIGEINPSNGHTNYNEKFESKATLTVDRSSSTAYMQLSSLTSEDSAVFYCANGVESYDFDDALDYWGQGTSVTVSS
VL: DIQMTQTTSSLSASLGDRVTISCRASQDINNYLNWYQQKPDGTIKLLIYYTSRLHSGVPSRFSGSGSGTDYSLTINNLEQEDIATYFCQQGNTLPFTFGGGTKLEIK
B3: Fab.B (Fab of mAbB) (Fab, V domains shown)
VH: QVQLQQPGAELVKPGASVKLSCKASVYTFTSYWMHWVKQRPGQGLEWIGEINPSNGHTNYNEKFKTKAKLTVDKSSSTAYMQLSSLTSEDSAVYFCANGVETYDFDDAMDYWGQGTSVTVSS
VL: B2 VL with I44V, Y50F, N76S, N92D, L94F
B4: Fab.C (Fab of mAbC) (Fab, V domains shown)
VH: QIQLVQSGPELKKPGETVKISCKASGYTFTNYEMNWVKEAPGKGLKWMGWINTYTGESTYADDFKGRFAFSLETSASTVYLQINNLKDEDVATYFCVRDDYGRSYGFAYWGQGTLVTVSA
VL: NIVLTQSPASLTVSLGQRANISCRASESVDSYGNSFMHWYQQKPGQPPKLLIYLASKLESGVPARFSGSGSRTDFTLTIDPVETDDAATYYCHQNNEDPPWTFGGGTKLEIK
B5: Fab1 (Fab of mAb1) (Fab, V domains shown)
VH: DVQLQESGPGLVKPSQSLSLTCTVTGYSITGGFAWNWIRQFPGNTLEWMGYIGYGGSTSYNPSLNSRISITRDTSKNHFFLQFNSVTTDDSATYYCARGDYLFAYWGQGTLVTVSA
VL: DIVMTQSHKFMSTSVGDRVSITCKASQDVNTAVAWYQQKPGQSPKLLIYSASYRYTGVPDRFTGSGSGTDFTFTISSVQAEDLAVYYCQQHYSTPRTFGGGTKLEIK
B6: Fab.E (Fab of mAbE) (Fab, V domains shown)
VH: DVQLVESGGGLVQPGGSRKLSCAASGFTFSTFGMHWVRQAPEKGLEWVAYISSGSNAIYYADTVKGRFTISRDNPKNTLFLQMTSLRSEDTAMYYCASPGYGAWFAYWGQGTLVTVSA
VL: ENVLTQSPAIMSASPGEKVTMTCRASSSVSSAYLHWYQQKSGASPKLWIYSTSNLASGVPARFSGSGSGTSYSLTISSVEAEDAATYYCQQYSAYPYTFGGGTKLEIK
B7: Fab.F (Fab of mAbF) (Fab, V domains shown)
VH: QVQLQQSGPEVVRPGVSVKISCKGSGYTFTDYSMHWVKQSHAKSLEWIGVISTYNGNTNYNQKFKGKATMTVDKSSSTAYMELARLTSEDSAIYYCARRGYYGSSSWFGYWGQGTLVTVSA
VL: DIVMTQSQKFMSTSVGDRVSVTCKASQNVGTDVAWYQQKPGQSPEALIYSASYRYSGVPDRFTGSGSGADFTLTISNVQSEDLAEYFCQQYNSFPYTFGGGTKLEIK
B8: Fab2 (Fab of mAb2) (Fab, V domains shown)
VH: B5 VH with D1E, D89E
VL: B5 VL
notes: Fab fragment of the antibody

Biological target: T1, Human Siglec-9 mutant M6 (human, UniProt Q9Y336 18-463)
T1 construct: Expressed on HEK293T cells; also called Mutant 6
T1 sequence (Q9Y336 other isoform, or with tags, fused parts or gaps mutant): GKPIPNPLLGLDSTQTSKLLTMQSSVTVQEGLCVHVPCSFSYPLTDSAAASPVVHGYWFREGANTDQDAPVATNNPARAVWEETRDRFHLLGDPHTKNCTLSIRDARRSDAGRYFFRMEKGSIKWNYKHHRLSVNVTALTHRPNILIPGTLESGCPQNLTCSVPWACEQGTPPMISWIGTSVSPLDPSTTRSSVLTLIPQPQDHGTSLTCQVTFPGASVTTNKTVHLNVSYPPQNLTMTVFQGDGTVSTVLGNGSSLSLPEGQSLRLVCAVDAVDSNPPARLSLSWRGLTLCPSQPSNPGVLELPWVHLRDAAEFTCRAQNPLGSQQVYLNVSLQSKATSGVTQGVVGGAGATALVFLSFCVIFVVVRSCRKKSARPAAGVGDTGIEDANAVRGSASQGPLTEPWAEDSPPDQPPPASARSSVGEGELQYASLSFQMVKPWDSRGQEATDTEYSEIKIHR
Experiment: flow cytometry, HEK293T transfectants; '-' indicates full loss of binding

binding result | Binder
no binding | B1

Biological target: T2, Human Siglec-9 mutant M16 (human, UniProt Q9Y336 18-463)
T2 construct: Expressed on HEK293T cells; also called Mutant 16
T2 sequence (Q9Y336 other isoform, or with tags, fused parts or gaps mutant): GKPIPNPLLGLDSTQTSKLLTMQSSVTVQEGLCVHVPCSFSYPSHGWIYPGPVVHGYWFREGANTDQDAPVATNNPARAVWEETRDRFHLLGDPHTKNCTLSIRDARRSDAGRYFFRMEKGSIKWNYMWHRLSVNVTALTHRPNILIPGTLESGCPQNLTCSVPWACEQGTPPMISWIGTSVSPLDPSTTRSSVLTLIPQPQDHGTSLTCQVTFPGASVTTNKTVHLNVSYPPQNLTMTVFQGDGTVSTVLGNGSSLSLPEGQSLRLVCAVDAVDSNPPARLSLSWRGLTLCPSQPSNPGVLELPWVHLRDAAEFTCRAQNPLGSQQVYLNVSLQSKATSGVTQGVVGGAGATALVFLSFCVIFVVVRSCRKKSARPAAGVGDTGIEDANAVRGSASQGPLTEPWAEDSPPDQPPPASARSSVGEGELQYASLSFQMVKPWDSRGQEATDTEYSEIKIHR
Experiment: as above

binding result | Binder
no binding | B2
no binding | B3

Biological target: T3, Human Siglec-9 mutant M8 (human, UniProt Q9Y336 18-463)
T3 construct: Expressed on HEK293T cells; also called Mutant 8
T3 sequence (Q9Y336 other isoform, or with tags, fused parts or gaps mutant): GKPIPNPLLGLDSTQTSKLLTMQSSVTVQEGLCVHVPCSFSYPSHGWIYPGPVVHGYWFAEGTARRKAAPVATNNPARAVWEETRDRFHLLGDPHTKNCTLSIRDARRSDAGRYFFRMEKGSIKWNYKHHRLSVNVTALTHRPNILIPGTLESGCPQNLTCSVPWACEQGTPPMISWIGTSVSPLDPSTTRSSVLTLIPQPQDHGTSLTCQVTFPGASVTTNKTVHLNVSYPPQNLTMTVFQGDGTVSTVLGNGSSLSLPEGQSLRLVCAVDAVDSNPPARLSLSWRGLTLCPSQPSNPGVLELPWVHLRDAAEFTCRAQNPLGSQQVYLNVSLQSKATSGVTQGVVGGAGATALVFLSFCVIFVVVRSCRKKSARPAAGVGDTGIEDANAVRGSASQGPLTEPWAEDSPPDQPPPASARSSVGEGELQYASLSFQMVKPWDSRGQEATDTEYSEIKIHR
Experiment: as above

binding result | Binder
no binding | B4

Biological target: T4, Human Siglec-9 mutant M11 (human, UniProt Q9Y336 18-463)
T4 construct: Expressed on HEK293T cells; also called Mutant 11
T4 sequence (Q9Y336 other isoform, or with tags, fused parts or gaps mutant): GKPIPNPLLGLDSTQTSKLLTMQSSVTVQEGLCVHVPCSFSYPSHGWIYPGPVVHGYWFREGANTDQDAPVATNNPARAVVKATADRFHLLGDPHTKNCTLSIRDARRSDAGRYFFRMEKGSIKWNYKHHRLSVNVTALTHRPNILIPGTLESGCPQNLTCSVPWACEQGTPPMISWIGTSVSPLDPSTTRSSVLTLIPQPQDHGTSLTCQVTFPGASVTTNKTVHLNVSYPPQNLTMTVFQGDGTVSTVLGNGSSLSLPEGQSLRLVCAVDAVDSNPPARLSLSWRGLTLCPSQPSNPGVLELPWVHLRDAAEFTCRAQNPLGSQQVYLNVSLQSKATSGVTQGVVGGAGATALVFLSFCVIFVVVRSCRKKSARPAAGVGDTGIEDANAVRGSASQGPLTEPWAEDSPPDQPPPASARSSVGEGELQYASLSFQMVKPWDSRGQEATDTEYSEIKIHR
Experiment: as above

binding result | Binder
no binding | B5
no binding | B6
no binding | B7

Biological target: T5, Siglec-7 Fc protein (human)
T5 construct: Produced in CHO cells; also called human Siglec-7 Fc
T5 sequence (chain, as listed by the source limits assumed): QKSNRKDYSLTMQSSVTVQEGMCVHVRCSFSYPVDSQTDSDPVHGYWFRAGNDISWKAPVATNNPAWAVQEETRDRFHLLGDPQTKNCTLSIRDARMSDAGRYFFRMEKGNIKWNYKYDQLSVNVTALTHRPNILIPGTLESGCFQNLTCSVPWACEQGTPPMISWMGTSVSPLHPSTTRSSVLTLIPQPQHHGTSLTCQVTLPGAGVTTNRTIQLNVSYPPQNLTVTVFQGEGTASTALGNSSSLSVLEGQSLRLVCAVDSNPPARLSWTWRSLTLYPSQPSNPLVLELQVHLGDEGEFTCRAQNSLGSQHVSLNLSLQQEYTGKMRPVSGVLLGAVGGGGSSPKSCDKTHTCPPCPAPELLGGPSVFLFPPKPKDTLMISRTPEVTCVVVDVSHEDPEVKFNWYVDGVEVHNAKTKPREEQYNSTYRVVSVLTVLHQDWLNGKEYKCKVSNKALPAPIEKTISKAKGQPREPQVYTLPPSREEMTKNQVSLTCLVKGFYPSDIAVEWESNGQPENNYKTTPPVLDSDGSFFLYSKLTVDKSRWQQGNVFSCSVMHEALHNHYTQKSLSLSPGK
Experiment: SPR (Biacore T200), Fab over immobilized Siglec-7 Fc, 1:1 model
Method: (§1) SPR measurements were performed on a Biacore™ T200 apparatus (Biacore™ GE Healthcare) at 25° C. In all Biacore™ experiments HBS-EP+(Biacore™ GE Healthcare) and NaOH 10 mM served as running buffer and regeneration buffer respectively. Sensorgrams were analyzed with Biacore™ T200 Evaluation software. Human siglec-9 and -7 multimeric proteins were cloned, produced and purified at Innate Pharma.
(§2) Proteins were immobilized covalently to carboxyl groups in the dextran layer on a Sensor Chip CM5. The chip surface was activated with EDC/NHS (N-ethyl-N′-(3-dimethylaminopropyl) carbodiamide hydrochloride and N-hydroxysuccinimide (Biacore™ GE Healthcare). Proteins were diluted to 10 μg/ml in coupling buffer (10 mM acetate, pH 4.2 & 5.0) and injected until the appropriate immobilization level was reached (i.e., 600 to 2000RU). Deactivation of the remaining activated groups was performed using 100 mM ethanolamine pH 8 (Biacore™, GE Healthcare).
(§3) The affinity study was carried out according to a standard Kinetic protocol recommended by the manufacturer (Biacore™ GE Healthcare kinetic wizard). […] The entire sensorgram sets were fitted using the 1:1 kinetic binding model. Monovalent affinities and kinetic association and dissociation rate constants are shown below in Table 2 below.

Kd [nM] | koff [s⁻¹] | Binder
0.06 | 4e-05 | B5
0.07 | 4e-05 | B8

Biological target: T6, Human Siglec-9 mutant M14 (human, UniProt Q9Y336 18-463)
T6 construct: Expressed on HEK293T cells; also called Mutant 14
Experiment: flow cytometry, HEK293T transfectants

binding result | Binder
binds | B4
binds | B1

Biological target: T7, Human Siglec-9 mutant M15 (human, UniProt Q9Y336 18-463)
T7 construct: Expressed on HEK293T cells; also called Mutant 15
T7 sequence (Q9Y336 other isoform, or with tags, fused parts or gaps mutant): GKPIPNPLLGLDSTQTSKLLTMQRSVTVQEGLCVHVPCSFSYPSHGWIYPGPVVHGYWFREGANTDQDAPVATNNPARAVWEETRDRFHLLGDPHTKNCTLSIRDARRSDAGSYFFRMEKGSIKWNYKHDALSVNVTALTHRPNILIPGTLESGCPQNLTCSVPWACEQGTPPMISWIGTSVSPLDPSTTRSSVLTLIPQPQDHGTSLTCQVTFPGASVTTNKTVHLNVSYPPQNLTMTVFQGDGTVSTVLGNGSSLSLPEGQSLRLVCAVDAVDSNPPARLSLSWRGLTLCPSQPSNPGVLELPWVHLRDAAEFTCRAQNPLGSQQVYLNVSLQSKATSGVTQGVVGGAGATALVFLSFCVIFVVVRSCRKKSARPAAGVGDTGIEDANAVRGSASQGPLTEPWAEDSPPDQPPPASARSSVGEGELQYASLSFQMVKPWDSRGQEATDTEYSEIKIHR
Experiment: flow cytometry, HEK293T transfectants

binding result | Binder
binds | B2
binds | B3
binds | B4
binds | B1

Biological target: T8, Human Siglec-9 mutant M5 (human, UniProt Q9Y336 18-463)
T8 construct: Expressed on HEK293T cells; also called Mutant 5
T8 sequence (Q9Y336 other isoform, or with tags, fused parts or gaps mutant): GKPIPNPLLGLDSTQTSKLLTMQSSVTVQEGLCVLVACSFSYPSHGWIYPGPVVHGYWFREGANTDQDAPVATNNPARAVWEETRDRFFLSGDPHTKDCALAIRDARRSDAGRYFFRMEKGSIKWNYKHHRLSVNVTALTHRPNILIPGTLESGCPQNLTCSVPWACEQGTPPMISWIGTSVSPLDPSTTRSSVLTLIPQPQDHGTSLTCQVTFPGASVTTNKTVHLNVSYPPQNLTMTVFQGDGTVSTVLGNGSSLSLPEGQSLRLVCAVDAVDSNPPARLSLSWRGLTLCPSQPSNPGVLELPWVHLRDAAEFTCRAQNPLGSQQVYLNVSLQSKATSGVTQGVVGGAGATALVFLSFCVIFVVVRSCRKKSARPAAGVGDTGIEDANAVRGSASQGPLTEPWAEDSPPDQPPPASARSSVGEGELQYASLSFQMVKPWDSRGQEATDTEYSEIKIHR
Experiment: flow cytometry, HEK293T transfectants

binding result | Binder
binds | B5
binds | B6
binds | B7

Biological target: T1, Human Siglec-9 mutant M6
Experiment: flow cytometry, HEK293T transfectants

binding result | Binder
binds | B5
binds | B6
binds | B7

Biological target: T3, Human Siglec-9 mutant M8
Experiment: flow cytometry, HEK293T transfectants

binding result | Binder
binds | B5
binds | B2
binds | B3
binds | B1

Biological target: T9, Human Siglec-9 mutant M7 (human, UniProt Q9Y336 18-463)
T9 construct: Expressed on HEK293T cells; also called Mutant 7
T9 sequence (Q9Y336 other isoform, or with tags, fused parts or gaps mutant): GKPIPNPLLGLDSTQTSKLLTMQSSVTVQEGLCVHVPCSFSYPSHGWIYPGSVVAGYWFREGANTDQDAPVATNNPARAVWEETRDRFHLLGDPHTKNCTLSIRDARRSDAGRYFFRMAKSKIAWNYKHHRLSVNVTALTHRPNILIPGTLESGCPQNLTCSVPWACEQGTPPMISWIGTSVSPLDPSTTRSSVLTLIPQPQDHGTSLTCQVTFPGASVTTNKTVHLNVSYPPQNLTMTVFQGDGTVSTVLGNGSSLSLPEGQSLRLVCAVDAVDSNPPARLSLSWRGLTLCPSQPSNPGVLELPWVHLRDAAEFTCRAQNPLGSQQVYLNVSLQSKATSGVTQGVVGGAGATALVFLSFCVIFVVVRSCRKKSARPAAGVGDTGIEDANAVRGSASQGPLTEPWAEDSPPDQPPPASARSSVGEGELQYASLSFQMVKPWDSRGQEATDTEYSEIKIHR
Experiment: flow cytometry, HEK293T transfectants

binding result | Binder
binds | B5
binds | B2
binds | B3
binds | B4
binds | B6
binds | B7

Biological target: T4, Human Siglec-9 mutant M11
Experiment: flow cytometry, HEK293T transfectants

binding result | Binder
binds | B4
binds | B1

Biological target: T10, Human Siglec-9 mutant M2 (human, UniProt Q9Y336 18-463)
T10 construct: Expressed on HEK293T cells; also called Mutant 2
T10 sequence (Q9Y336 other isoform, or with tags, fused parts or gaps mutant): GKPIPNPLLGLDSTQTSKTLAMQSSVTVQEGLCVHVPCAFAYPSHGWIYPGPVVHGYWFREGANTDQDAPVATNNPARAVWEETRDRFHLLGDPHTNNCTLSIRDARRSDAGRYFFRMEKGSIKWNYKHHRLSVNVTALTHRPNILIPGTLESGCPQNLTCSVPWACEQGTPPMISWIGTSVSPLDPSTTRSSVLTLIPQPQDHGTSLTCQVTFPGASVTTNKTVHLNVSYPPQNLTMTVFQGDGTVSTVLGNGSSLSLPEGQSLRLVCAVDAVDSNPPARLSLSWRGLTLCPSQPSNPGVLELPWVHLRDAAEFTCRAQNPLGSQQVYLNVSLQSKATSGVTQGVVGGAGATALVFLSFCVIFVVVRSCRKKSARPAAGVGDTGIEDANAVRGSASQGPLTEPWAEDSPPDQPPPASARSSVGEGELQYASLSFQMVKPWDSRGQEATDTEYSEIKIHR
Experiment: flow cytometry, HEK293T transfectants

binding result | Binder
binds | B5
binds | B6
binds | B7

Biological target: T11, Siglec-9 Fc protein (human)
T11 construct: Produced in CHO cells; also called human Siglec-9 Fc
T11 sequence (chain, as listed by the source limits assumed): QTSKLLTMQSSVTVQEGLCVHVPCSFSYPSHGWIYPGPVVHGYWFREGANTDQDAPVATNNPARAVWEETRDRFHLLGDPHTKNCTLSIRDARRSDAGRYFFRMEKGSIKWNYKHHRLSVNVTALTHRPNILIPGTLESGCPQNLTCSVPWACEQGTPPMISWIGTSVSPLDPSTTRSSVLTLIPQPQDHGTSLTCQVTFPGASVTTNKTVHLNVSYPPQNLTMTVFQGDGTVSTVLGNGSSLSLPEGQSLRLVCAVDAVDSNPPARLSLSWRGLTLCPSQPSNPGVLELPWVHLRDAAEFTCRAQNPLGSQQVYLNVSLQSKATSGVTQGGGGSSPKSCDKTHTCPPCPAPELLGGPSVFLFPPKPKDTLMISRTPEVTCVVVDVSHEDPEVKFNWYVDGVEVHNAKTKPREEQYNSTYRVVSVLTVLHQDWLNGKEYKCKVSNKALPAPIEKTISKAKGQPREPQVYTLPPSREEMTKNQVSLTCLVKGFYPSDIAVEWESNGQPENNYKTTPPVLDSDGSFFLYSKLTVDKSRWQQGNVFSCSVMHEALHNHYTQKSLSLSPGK
Experiment: SPR (Biacore T200), Fab over immobilized Siglec-9 Fc, 1:1 model
Method: as §1, §2, §3

Kd [nM] | koff [s⁻¹] | Binder
0.4 | 0.00016 | B5
0.8 | 0.00017 | B8
0.04 | 2.5e-05 | B2
0.37 | 0.00031 | B3
0.55 | 0.00043 | B4
4.12 | 0.00011 | B1
1 | 0.0019 | B6
1 | 0.00046 | B7
